Source: a protein production outcome set (Wang et al. 2014)

Assay: label from the status in PepcDB records

**Q.** Which protein production does the source give for “MKIIVVGGGKVGKALCRSLVEEEHDVILIEENESVLNHVTKRLDIMGIVGNGANFRILEQADVQHCDIFIAITDKDEVNMVAAVLAKRMGAKETIVRVRNPEYSNTYFKDKNFLGFSLVVNPELLTARYIANMVDFPNARSVEHFVNGRVMLMEFKIVDGNNLCQMSLNQFRKRFNNIVICAIERGNELIIPDGDAVIQSGDKIFVTGKRMEMIHFHNFVKNKVIKHLMIIGAGRISYYLLNILKTTNRHLQVKVIELNPKKAELFSQEFPHIHVVQGDGTAKDILLEESAANYDAIATLTGVDEENIIASMFLETLGVQKNITKVNRTSILEIINPEQFSSIITPKSIAVDSMMHFIRGRVNAQDSNLDAMHHVANGRIETLQFEIRQTNKMAGKTLSELHFKTNVLIAAIIRNGKTIFPTGDDILEVGDKIVVITLLTNITHIYDLLKR” here?
**A.** The protein production was “failed”.

**Q.** Which protein production does the source give for “MKIKFKRLDYQEQCRDQILGVFKGIDLKEPENDAQRISNPVFEIGAIKDLLLENIENLRSKQKITQGSVGIDKSLNCDILMETGTGKTFCFLECVYALHKNHHLSKFIVLTPSNAIKLGVLKSVEITREFFKSEYSNTHLESYEDIERFILASNHKCCVLVMTFSAFNKEKNTINKSCLENTNLFNGATSYMQALVSMRPIVIMDEPHRFLGDKTKKYLEQLNALLTLRFGATFKDDYNNLIYTLDSKKAFDCALVKSISVASVGESNECFLELKGIEKKEAAINYTDLENKTQSVKVKEHDNLGVVTQISALEDYIVEKITKTEIRFLNGFNLLLDQKEPFSHLLEGEQEVMLKEAIKSHFEREEGLFKKGIKALCMVFISGVNSYLSENEKPAKLALLFEKLYQQKLEEVLKKPLDENYRAYLECTREDIKKVHGGYFAKSKKEGDETKTIELILKEKEKLLSFDSDLRFIFSQWALQEGWDNPNVMTICKLAPSHSNITKLQQIGRGLRLAVNDKGERITKEHADFDFVNELVVIVPQVEGDFVGAIQQEISEHSLIKQEFSAEELEKSGVVKKGRYGFLLETLEGLGFGEKTGDENFKLTLNQNEFLEKEPELEKLKDEKYLDFEKLKDFLKDRLIGNSRVRDKNERKSEKIKINKENFKKFETLWESLNHQARIAYAIDSESLIDEIVKNINSSFNVSSKIVSVTTHKKVETMGNNAKTEIFERENACVWSLHEFISALSNKVKLSFKSVAKVLENIDENKFNEIKKNEQEGLRRLEELFLEIIYQNIKDKISYQMRETTIKNRKNDAFYDEKGEIREFLDGSLGADKYEIKNSSVREKCLYENFMQVDSEIEKDTIEESNDTKIIVFGKLPRVKIPIGLNQTYSPDFGYVVENNDKKVLLVVETKGVDKKSELRPEEERKISTAKKFFEALKKQGVNIEYKTKMEKDQLSALINEVLNRKD” here?
**A.** The protein production was “failed”.

**Q.** For “MKIKKNMIKGILLTTIVSFLAKIAADYLPSLGGEAIAMLLGILIGNTVFKDEKWMPGIKWAEKFPIEIGIALMGLTVTLRTISSLKIQGVIFILFQMMATILFVLWVGRRFIKVPSESAMLMASGNAVCGSSAIAAVAPAIRASDDQRRTAVATVSLSGVVLLFLLPVIGPNIFHGNNLLIGALIGGTVQSVGQVVGTASLVNQAVVTYATLFKMLRVILLSVVVFVFARFADRTRADEIKTDSKKVAVPWFVIVFIIFVFINSFFNLSNTVNTGAKSIANFFGIVNLAGIGLNLKWQTVKNSGQKFMIYGLVTVCFQILFAVLMINVLFG”, which protein production is on record?
**A.** Its protein production is “failed”.

**Q.** Which protein production does the source give for “MKIKRLYLLGAWLLLGVSVSAQITSIQPQPQQVLSQARNLSLPDTYLIVGDTEANTHAVSALKTLLAGKHSDKNGFRIYIGEKGDKAIRKFARQIPNHKEGYYLAINDKEIVLAGQDGRGTFYALQTLAQLLNDNQLPVVEIKDYPSVRFRGVVEGFYGTPWSHEARLRQLKFYGENKMNTYIYGPKDDPYHSSPNWRLPYPEKEALQLQELVKVANENEVDFVWAIHPGQDIKWNQEDRDLLLAKFEKMYDLGVRSFAVFFDDISGEGTNPNKQAELLNYIDEKFVKVKPDVTPLVMCPTEYNKSWSNPKGNYLTTLGEKLNPSIQIMWTGDRVISDITKDGIAWINARIKRPAYIWWNFPVSDYVRDHLLLGPVYGNDTQIADQMSGFVTNPMEHAEASKIAIYSVAGYAWNPEKYNSEQTWKDAIRTILPSAADELEFFAAHNSDLGPNGHKYRRDESVELQPLSQRFLDSYLKNGSYTEADFNALEATFGKMVESGDVLMTNTGNRPLIVEMMPWLRQFKLLGETGQEVLAMAKAYKEGDNSLFIRKYRHVKALQQQMFQVDQTYNQNPYQPGVKTATKVIKPLIDQTFTTVTERYNKEHGTQLDAATDYMPHKLVSDVEQLRNQPLQIKTNRVLVSPANEVIKWGAGCTLTIELDQAYPGENLDIDFGKPDVAAWGQLEISADGKEWQKVDFKQEKNRITLNLKQTPVKAVRFSNVGNAEQEVYLRRFMITLDK” here?
**A.** The protein production was “failed”.

**Q.** For “MKIKVALLDKDKEYLDRLTGVFNTKYADKLEVYSFTDEKNAIESVKEYRIDVLIAEEDFNIDKSEFKRNCGLAYFTGTPGIELIKDEIAICKYQRVDVIFKQILGVYSDMAANVATISGENDKSSVVIFTSPCGGVGTSTVAAACAIAHANMGKKVFYLNIEQCGTTDVFFQAEGNATMSDVIYSLKSRKANLLLKLESCIKQSQEGVSYFSSTKVALDILEISYADIDTLIGNIQGMDNYDEIIVDLPFSLEIEKLKLLSKAWRIIVVNDGSQLSNYKFMRAYESVVLLEQNDDINIIRNMNMIYNKFSNKNSEMLSNISIKTIGGAPRYEHATVRQIIEALTKMEFFEEILQ”, which protein production is on record?
**A.** The protein production was “not failed”.

**Q.** For “MKILKISLTVVVEVALIYLFSLLVGWSFMEAFFLGSLAIFGAIWLIALNINQNNNIDHTIYKTGTVKPFQMTWGPYTTGATSLTAFSFIITTIYYLPYFL”, which protein production is on record?
**A.** Its protein production is “failed”.

**Q.** With “MKILVTSGGTSEAIDSVRSITNHSTGHLGKIITETLLSAGYEVCLITTKRALKPEPHPNLSIREITNTKDLLIEMQERVQDYQVLIHSMAVSDYTPVYMTGLEEVQASSNLKEFLSKQNHQAKISSTDEVQVLFLKKTPKIISLVKEWNPTIHLIGFKLLVDVTEDHLVDIARKSLIKNQADLIIANDLTQISADQHRAIFVEKNQLQTVQTKEEIAELLLEKIQAYHS” as the sequence, how does the protein production read?
**A.** Its protein production is “not failed”.

**Q.** Which protein production does the source give for “MKIMIFICGEGLGHTSRCLALGKELLNAGHEIKFGAYGYSKELVEKTGYTAQEIPSEIKLVGKAGSLDLTGSIEATLKSAQLLGGPKLLKLLREFKPDVVVSDSYYLGTLAAMVLKLPVYLIINQSNMEEFFKNRGLEHHHHHH” here?
**A.** Its protein production is “not failed”.

**Q.** With “MKINKELYSIALVLTVLFFVFSILISSVASAAQVTRIGSGSDPAIYGNKIVWTSGGVIHLYDLTSKTGTTVSSSAASHPAIYGNKLVWHDKSSGVPRLTVYDIPSGARSYITQDVGNYSFPAIYGNRIVWSANYNRSSYSYNVYMRDISTSTQVWIAQGENPEIYETKITYGYDDDDGRNIAVYDVNTKETINVHHSSQVFNPHMYGNKVIWSNFYTRSGFIQMYDLVAKKAIDVTSDNTGNTLYGSDTIDAGDDTGTHIDISGDEIVYSKSGDDQFGYAGVYVYDIPSAKSTPVYIYPRGTHTTPDIYNDTIVWGIDSSYGGVNDTGIYICDLSVTNTLPPVAEFTANTTYGAAPLVVLFTDASTGGVPTSWIWDFGHGIDSKHVMNATHTFTKPGNYTISLTAGNDAGNNKVMKPNYIVVTNPFPVANFSSNVTHGYPPLSIQFTDLSQNATGWNWDFGDGSNSTQRSPVHEYADSGIYSVNLTAINENGTDSKLTTITVMQLVGVGPYAYITNSGDNNVSVIDTTTNKVTAMIPVGNYPMGVAVTLDGKKVYVTNFFGRTISVIDATKNKVTATIPLGNSPRGVAVSPDGKRVYVPHHEVGNPSNNTTLIIDTDTNEVEATVLVGEVPFGVAVTLDGKKVYVTNLRDKTVSVIDTATNTVIATIPVGDDPCGVAISPDGKKVYVGNRGDSTVSIIDTATNTVTATVDLENSPYGIVVNPTGTKVYVAGTKKAYAAGTVDGFVSVIDTATNKVTATIPVGNSPFGVAVTPDGSKVYVANQLRDTVSVIDTSTNKVTATMNVGRNPNSFGQFIGSLQAQPIFPVANFSSNVTEGYAPLTVKFNDMSQKATSRIWDFNGDGQLDSSNINPVYIYANPGTYTVNLTVSNKNGTDSKTAAINVLTPSSSSGVSSHSSSSGG” as the sequence, how does the protein production read?
**A.** The protein production was “failed”.

**Q.** With “MKINLLQYIAGFLGFIALFYGIFSLIREYHFLEIKSLEVFVLIFFGFFAITYAFTDRIMIEKPFALTFAVILFYLSLITPLPLTNKILLITGGIIETQLASRKGVKGTVYIILGILTLIYFVYAHFINLSSILSLIGIGLSSLIIVLGNRDRKVKGISYLTYPVGIPLVVYGINGFFPLSINPIFIIVGLAIVLLNLLPSKGIPSSDYDLKLDQKLCNDIQRSECKDVIQIYKKYMVYIPQHCLDKVVLCTINQNDMQNFNLVINNSLARSVAERYVDKMSPEMLYSLALLSSRKKELLELACKKGYKKACEQTKPILDMKNWDPKVWVGKEIYNYNIVDIIGVGGTSYILKGEKDGNFYALKIPLINYLNNVMDLVGESSKLIELSNKSPYIVRLYAIYADQLDVKEILGGNPEIYYNKPPMLVIELMKGGSINDVINVKELVKSEYWKKIVFITTARIAEALETIHSEGYVHCDVKPQNVLFNEKLPPNARLAYDNLKNGKIIVKLADLGSAVKAGEKPFSYTPAYVSFDLVKSTAFGGVSPMADIYALGATVYKLLTGVTLNTNVMIEAMDKFEANKDIRYLDNSLYSTRNLDLLRKYVDKNTYLFISKMVDPDPNKRPTSKEIKEFFYFRV” as the sequence, how does the protein production read?
**A.** The protein production was “failed”.

**Q.** For “MKINWAENLRQNVHQLAESLGNLFVESFHYLALFAIGAVTAWAAVMEFLQMIEVGHIKIDDILLLFIYLELGAMVGIYFKTNHMPVRFLIYVAITALTRLLISNVSHHNPPDLGIIYLCGGILLLAFAILVVRYASSQFPSVKIEHPQRKIGAGSGEHPEVEKGEL”, which protein production is on record?
**A.** Its protein production is “failed”.

**Q.** Which protein production does the source give for “MKIPSVFMLEQQKASLQLHVKQLANEAIQKSAPSAWFEVLYAEAQGDTTQIPWAKLTPHPYLQEWLTNHQPFPSGQKALVIGCGLGDDAEALAKLGFAVTAFDISPTAIAWCGQRFPNSNVNYIVADLLAIPPQWHLAFDFVFECRNIQALPLNIRAEVITSIASVVAPDGTLLLINRVRLEHHHHHH” here?
**A.** Its protein production is “failed”.

**Q.** With “MKIRTIARASLLSAAIALAVTGCNSEPDMSQEDIQYISHVDQARFFQRQGELKASTIEARSAIDLQPNRTAPYFVIIHNLLTAGDAANAERQLDKLLENTNIEELGQSERNQAALIRAEARILQGKHQEALESLDQISSPSPDQQLQADNLKGRAWLTSGDFDKAEEAYQSAFDKHSNNVVAMVGLSRVATAKGDFDTAKERLEKAIEIDAEHEDVWLWRAQFAHAQQQWAEAEQAYIRALETIGQFDVMTFRKYQTISALITVLREQGKSAEAFVYEEILAKSGPGTIKSNLEAAASAYNDGDLNTAARYLQEVLNQVPNHQQSALMLGVIRYRQGRPEEAEKLLAPLADMENADEVRKLLAATRISMRDPAGAKSLLEDLEGSDADPQTLALVGIASLASGDDQSGRQLLEKSLELAPDNHNLRLRYAAYLTQTRDFANAIKQARQIPSDATEALQATILTSQAQALSGNSQTATDTLDTWLKANPDSMAALIARGNLASSLNNTQQAASYFERAHKQHPEEAAPLVALGNLAREQQNTEQAIAWYRQAVETNPNNLPAIQALAGVMKRDQLTGLMQEISSKHPEANGPRLILLESALINNDTLQADELTARLMEREREDQPSPAEPLVAAVYEGIATQMAQRENSERALEILSRGRTLFPENEAIALKVAAIEFSNGNATAARSALQDAKQHHPDSPAPYQVEASYYENQGEHQQAAELYQLALAKRQTAELAIAHARALSNAGRSQNSIEALQEANKQFPNNSSILLTLALQTQQAGQTDAAIEHYQQVLQLTPDNALALNNLAWLYYEAGNSEAASLAKRAYELVPENAAIADTYGWILFEAGEHEQSLAVLERAHSLAPDSQEIAMHLAEAYRATGRTDAAQQIMDKFSTGNNG” as the sequence, how does the protein production read?
**A.** The protein production was “failed”.

**Q.** With “MKISTKDLVLCALFAAISCVLAQISIQLPFSPVPFTMQVMAVYLAGIILGAKKGFISQLVYVVLGAIGAPVFANFTGGVGAILGPAGGFIIAFPFMALIVGCVADKCRTKAYIIISMVLASVVCYVFGALWLVLVTKISFALAIKTAVLPFILFDMLKIIIVSIIGINIRSRIISGGLA” as the sequence, how does the protein production read?
**A.** The protein production was “failed”.

**Q.** With “MKKAGILGLIITIIVLVPVGLGFNWYHSNYGTKTYYTQITTKGERKTGKDDSGKPYVYYHYSQPGYSDNGVKKELTFDSVLPRSLKMHAYLKVGYNDKRQQVINWEKVNQKDIPQAALNRIQKLEHHHHHH” as the sequence, how does the protein production read?
**A.** Its protein production is “not failed”.
